Laboratory results as given in article PMC9482650, “Quantitative fragmentomics allow affinity mapping of interactomes” (Nature Communications, 2022).

How the values were obtained:
Assay in all cases: holdup assay
Set-up in all cases: key: below the threshold = too weak to quantify, mostly under pKd 3.1 to 4
[1] = target: GRID2IP_2, A4D2P6
[2] = target: TJP2_1, Q9UDY2
[3] = target: IL16_4, Q14005
[4] = target: DLG4_2, P78352
[5] = target: T1, LNX2_3, Q8N448
T1 sequence (Q8N448 463-564, limits assumed, looked up): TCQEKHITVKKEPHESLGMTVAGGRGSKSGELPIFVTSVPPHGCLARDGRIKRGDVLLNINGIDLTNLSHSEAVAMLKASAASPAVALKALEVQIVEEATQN

[6] = target: T2, DLG3_1, Q92796
T2 sequence (Q92796 125-227, limits assumed, looked up): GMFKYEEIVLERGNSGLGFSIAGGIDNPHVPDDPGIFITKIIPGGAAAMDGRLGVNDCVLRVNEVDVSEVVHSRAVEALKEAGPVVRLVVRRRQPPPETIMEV

[7] = target: MAGI1_1, Q96QZ7
Chain of MAGI1_1, Q96QZ7 (Q96QZ7 1-106): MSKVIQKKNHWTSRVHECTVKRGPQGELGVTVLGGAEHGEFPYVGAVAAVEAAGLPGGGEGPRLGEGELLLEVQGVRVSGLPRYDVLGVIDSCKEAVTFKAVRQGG

[8] = target: NHERF4_4, Q86UT5
Chain of NHERF4_4, Q86UT5 (Q86UT5 464-550): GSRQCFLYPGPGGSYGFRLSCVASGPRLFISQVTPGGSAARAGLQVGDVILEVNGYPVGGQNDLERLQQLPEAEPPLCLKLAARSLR

[9] = target: SNX27, Q96L92
[10] = target: T3, LRRC7, Q96NW7
T3 sequence (Q96NW7 1440-1537, limits assumed, looked up): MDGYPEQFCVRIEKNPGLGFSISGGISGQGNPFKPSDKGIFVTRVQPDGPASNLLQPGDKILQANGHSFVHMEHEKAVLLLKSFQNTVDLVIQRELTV

[11] = target: MAST2, Q6P0Q8
Chain of MAST2, Q6P0Q8 (Q6P0Q8 1099-1202): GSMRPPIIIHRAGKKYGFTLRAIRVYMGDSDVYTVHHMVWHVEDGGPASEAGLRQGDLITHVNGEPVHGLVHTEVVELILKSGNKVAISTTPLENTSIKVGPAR

[12] = target: T4, GRIP1_4, Q9Y3R0
T4 sequence (Q9Y3R0 467-571, limits assumed, looked up): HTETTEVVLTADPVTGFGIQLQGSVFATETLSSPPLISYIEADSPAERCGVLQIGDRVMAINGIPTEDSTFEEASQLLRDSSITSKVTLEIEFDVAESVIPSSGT

[13] = target: T5, APBA3_1, O96018
T5 sequence (O96018 389-490, limits assumed, looked up): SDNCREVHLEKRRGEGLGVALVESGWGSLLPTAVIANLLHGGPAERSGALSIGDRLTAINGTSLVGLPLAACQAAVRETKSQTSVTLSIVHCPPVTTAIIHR

[14] = target: MAGI3_2, Q5TCQ9
Chain of MAGI3_2, Q5TCQ9 (Q5TCQ9 398-503): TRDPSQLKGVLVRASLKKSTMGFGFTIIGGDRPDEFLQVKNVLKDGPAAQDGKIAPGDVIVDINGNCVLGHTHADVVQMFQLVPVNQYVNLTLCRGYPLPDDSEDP

[15] = target: LNX1_2, Q8TBB1
Chain of LNX1_2, Q8TBB1 (Q8TBB1 371-470): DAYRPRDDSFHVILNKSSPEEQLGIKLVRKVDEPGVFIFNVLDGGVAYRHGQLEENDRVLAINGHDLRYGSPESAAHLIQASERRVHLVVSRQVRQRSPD

[16] = target: SCRIB_1, Q14160
Chain of SCRIB_1, Q14160 (Q14160 718-814): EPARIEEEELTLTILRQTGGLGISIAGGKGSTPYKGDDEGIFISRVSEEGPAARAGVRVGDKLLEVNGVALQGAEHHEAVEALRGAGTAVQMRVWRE

[17] = target: PTPN3, P26045
Chain of PTPN3, P26045 (P26045 505-587): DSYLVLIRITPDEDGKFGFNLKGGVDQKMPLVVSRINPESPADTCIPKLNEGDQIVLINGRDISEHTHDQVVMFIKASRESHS

[18] = target: FRMPD3, Q5JV73
Chain of FRMPD3, Q5JV73 (Q5JV73 12-100): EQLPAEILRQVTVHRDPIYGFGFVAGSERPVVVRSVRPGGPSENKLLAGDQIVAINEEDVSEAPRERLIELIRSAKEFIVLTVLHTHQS

[19] = target: T6, DFNB31_1, Q9P202
T6 sequence (Q9P202 135-233, limits assumed, looked up): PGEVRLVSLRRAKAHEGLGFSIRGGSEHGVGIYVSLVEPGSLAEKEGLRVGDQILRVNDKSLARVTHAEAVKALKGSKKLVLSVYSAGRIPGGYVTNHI

[20] = target: T7, HTRA3, P83110
T7 sequence (P83110 354-453, limits assumed, looked up): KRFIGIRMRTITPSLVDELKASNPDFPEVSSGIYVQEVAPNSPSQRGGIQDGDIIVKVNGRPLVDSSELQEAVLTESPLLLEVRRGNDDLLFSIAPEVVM

[21] = target: T8, ARHGEF11, O15085
T8 sequence (O15085 42-136, limits assumed, looked up): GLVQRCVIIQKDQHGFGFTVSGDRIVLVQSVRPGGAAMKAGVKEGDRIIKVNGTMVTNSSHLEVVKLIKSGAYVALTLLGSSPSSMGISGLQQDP

[22] = target: GRIP2_6, Q9C0E4
Chain of GRIP2_6, Q9C0E4 (Q9C0E4 648-740): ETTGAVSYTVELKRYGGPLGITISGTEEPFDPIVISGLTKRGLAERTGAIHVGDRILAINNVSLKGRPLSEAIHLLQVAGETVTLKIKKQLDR

[23] = target: IL16_1, Q14005
Chain of IL16_1, Q14005 (Q14005 210-306): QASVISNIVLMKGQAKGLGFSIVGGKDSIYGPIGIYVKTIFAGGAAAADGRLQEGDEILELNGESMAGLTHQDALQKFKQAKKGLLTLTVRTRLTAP

[24] = target: GRIP2_4, Q9C0E4
Chain of GRIP2_4, Q9C0E4 (Q9C0E4 446-548): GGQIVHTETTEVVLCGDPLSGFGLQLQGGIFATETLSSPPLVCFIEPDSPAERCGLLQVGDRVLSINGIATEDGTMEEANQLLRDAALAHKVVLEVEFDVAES

[25] = target: T9, PDZD2_2, O15018
T9 sequence (O15018 329-429, limits assumed, looked up): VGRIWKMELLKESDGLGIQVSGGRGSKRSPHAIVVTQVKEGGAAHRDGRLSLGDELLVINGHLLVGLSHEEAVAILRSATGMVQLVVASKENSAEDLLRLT

[26] = target: PARD3_3, Q8TEW0
Chain of PARD3_3, Q8TEW0 (Q8TEW0 582-685): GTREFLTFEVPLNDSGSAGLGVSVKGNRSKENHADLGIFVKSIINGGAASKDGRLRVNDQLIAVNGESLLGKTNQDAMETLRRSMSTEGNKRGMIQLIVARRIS

[27] = target: T10, SYNJ2BP, P57105
T10 sequence (P57105 8-110, limits assumed, looked up): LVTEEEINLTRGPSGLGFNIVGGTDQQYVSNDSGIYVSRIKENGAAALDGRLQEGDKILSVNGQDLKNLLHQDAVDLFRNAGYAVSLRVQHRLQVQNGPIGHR

[28] = plain residues with an end cap or a label only (N-terminal biotin on a linker: gsgsgs; C-terminal amide)
[29] = plain residues with an end cap or a label only (N-terminal biotin on a linker: ado-ado)
[30] = plain residues with an end cap or a label only (N-terminal biotin on a linker: ahx)
[31] = plain residues with an end cap or a label only (N-terminal biotin on a linker: ttds)

Chain of DLG4_2, P78352 (P78352 155-259): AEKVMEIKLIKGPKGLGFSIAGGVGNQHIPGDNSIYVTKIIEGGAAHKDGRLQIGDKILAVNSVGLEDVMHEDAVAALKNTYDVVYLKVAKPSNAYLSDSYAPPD
Chain of GRID2IP_2, A4D2P6 (A4D2P6 272-370): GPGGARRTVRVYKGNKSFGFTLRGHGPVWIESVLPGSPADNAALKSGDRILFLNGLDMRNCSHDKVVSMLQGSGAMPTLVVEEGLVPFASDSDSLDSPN
Chain of TJP2_1, Q9UDY2 (Q9UDY2 24-128): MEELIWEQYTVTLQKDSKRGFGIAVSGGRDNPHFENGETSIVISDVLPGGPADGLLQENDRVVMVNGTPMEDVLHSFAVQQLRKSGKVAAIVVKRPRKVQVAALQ
Chain of IL16_4, Q14005 (Q14005 1229-1329): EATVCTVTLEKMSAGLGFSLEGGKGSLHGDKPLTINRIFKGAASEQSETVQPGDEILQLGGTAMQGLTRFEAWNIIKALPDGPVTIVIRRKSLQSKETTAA

With ELIQDTSTSFSTTREW [ARAP3_int, Q8WWN8] the pKd [1, 28] was 3.89, the pKd [2, 28] was “below the threshold” and the pKd [3, 28] was “below the threshold”. The pKd [4, 28] was “below the threshold”, the pKd [5, 28] was “below the threshold” and the pKd [6, 28] was “below the threshold”. The pKd [7, 28] was “below the threshold”, the pKd [8, 28] was 3.55 and the pKd [9, 28] was “below the threshold”. For the same binder, the pKd [10, 28] was “below the threshold”, the pKd [11, 28] was “below the threshold” and the pKd [12, 28] was “below the threshold”. The pKd [13, 28] was “below the threshold”, the pKd [14, 28] was “below the threshold” and the pKd [15, 28] was “below the threshold”. For the same binder, the pKd [16, 28] was “below the threshold”, the pKd [17, 28] was 3.84 and the pKd [18, 28] was “below the threshold”. The pKd [19, 28] was “below the threshold”, the pKd [20, 28] was “below the threshold” and the pKd [21, 28] was “below the threshold”. For the same binder, the pKd [22, 28] was “below the threshold”, the pKd [23, 28] was “below the threshold” and the pKd [24, 28] was “below the threshold”. For the same binder, the pKd [25, 28] was “below the threshold”, the pKd [26, 28] was “below the threshold” and the pKd [27, 28] was “below the threshold”.

With EEPEERHTEL [CES2, O00748] the pKd [1, 29] was 4.46, the pKd [2, 29] was “below the threshold” and the pKd [3, 29] was “below the threshold”. The pKd [4, 29] was 4, the pKd [5, 29] was “below the threshold” and the pKd [6, 29] was “below the threshold”. For the same binder, the pKd [7, 29] was 3.5, the pKd [8, 29] was “below the threshold” and the pKd [9, 29] was 4.74. The pKd [10, 29] was 3.61, the pKd [11, 29] was 5.44 and the pKd [12, 29] was “below the threshold”. The pKd [13, 29] was “below the threshold”, the pKd [14, 29] was “below the threshold” and the pKd [15, 29] was “below the threshold”. The pKd [16, 29] was 4.21, the pKd [17, 29] was 4.94 and the pKd [18, 29] was “below the threshold”. For the same binder, the pKd [19, 29] was 3.6, the pKd [20, 29] was “below the threshold” and the pKd [21, 29] was 4.64. The pKd [22, 29] was “below the threshold”, the pKd [23, 29] was “below the threshold” and the pKd [24, 29] was “below the threshold”. It also gave a pKd [25, 29] of 5.04, a pKd [26, 29] of 3.61 and a pKd [27, 29] of 4.18.

For QGRWDHETIV [TMEM215, Q68D42], the pKd [1, 30] was “below the threshold”, the pKd [2, 30] was 3.68 and the pKd [3, 30] was “below the threshold”. The pKd [4, 30] was 4.66, the pKd [5, 30] was “below the threshold” and the pKd [6, 30] was 4.34. The pKd [7, 30] was “below the threshold”, the pKd [8, 30] was “below the threshold” and the pKd [9, 30] was 5.38. For the same binder, the pKd [10, 30] was 3.76, the pKd [11, 30] was 4.86 and the pKd [12, 30] was “below the threshold”. For the same binder, the pKd [13, 30] was “below the threshold”, the pKd [14, 30] was 4.66 and the pKd [15, 30] was 4.23. The pKd [16, 30] was 4.11, the pKd [17, 30] was 4.19 and the pKd [18, 30] was “below the threshold”. The pKd [19, 30] was 3.86, the pKd [20, 30] was “below the threshold” and the pKd [21, 30] was 4.04. The pKd [22, 30] was “below the threshold”, the pKd [23, 30] was 4.4 and the pKd [24, 30] was “below the threshold”. For the same binder, the pKd [25, 30] was 4.69, the pKd [26, 30] was 4.47 and the pKd [27, 30] was 4.14.

With GGPKEEESPV [SLC16A1, P53985] the pKd [1, 31] was “below the threshold”, the pKd [2, 31] was “below the threshold” and the pKd [3, 31] was “below the threshold”. For the same binder, the pKd [4, 31] was 3.5, the pKd [5, 31] was “below the threshold” and the pKd [6, 31] was “below the threshold”. For the same binder, the pKd [7, 31] was “below the threshold”, the pKd [8, 31] was “below the threshold” and the pKd [9, 31] was 5.27. The pKd [10, 31] was “below the threshold”, the pKd [11, 31] was 4.3 and the pKd [12, 31] was “below the threshold”. For the same binder, the pKd [13, 31] was “below the threshold”, the pKd [14, 31] was “below the threshold” and the pKd [15, 31] was “below the threshold”. The pKd [16, 31] was 5.18, the pKd [17, 31] was 4.25 and the pKd [18, 31] was “below the threshold”. The pKd [19, 31] was 3.5, the pKd [20, 31] was “below the threshold” and the pKd [21, 31] was “below the threshold”. The pKd [22, 31] was “below the threshold”, the pKd [23, 31] was 4.26 and the pKd [24, 31] was “below the threshold”. The pKd [25, 31] was 4.75, the pKd [26, 31] was “below the threshold” and the pKd [27, 31] was 4.32.
